Assay results taken from US20230272055A1 (Incyte, published 2023).

T1: human Type 1 mutCALR on Ba/F3 cells expressing MPL and Type 1 mutCALR (human)
T1 chain: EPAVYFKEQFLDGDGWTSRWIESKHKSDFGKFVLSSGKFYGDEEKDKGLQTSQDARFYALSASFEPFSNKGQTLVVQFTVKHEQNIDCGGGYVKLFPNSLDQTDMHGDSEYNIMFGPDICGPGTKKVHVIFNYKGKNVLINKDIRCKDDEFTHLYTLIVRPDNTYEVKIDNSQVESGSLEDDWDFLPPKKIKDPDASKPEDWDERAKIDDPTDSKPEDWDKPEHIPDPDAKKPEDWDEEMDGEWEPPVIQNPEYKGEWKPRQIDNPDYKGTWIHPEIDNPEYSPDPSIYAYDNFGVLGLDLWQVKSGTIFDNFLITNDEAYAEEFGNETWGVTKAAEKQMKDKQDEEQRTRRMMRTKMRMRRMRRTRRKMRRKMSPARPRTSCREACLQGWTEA

T2: human mutCALR on BaF3 cells stably expressing human MPL and human mutCALR (MPL-mutCALR cells) (human)
T2 construct: also called mutant calreticulin
T2 chain: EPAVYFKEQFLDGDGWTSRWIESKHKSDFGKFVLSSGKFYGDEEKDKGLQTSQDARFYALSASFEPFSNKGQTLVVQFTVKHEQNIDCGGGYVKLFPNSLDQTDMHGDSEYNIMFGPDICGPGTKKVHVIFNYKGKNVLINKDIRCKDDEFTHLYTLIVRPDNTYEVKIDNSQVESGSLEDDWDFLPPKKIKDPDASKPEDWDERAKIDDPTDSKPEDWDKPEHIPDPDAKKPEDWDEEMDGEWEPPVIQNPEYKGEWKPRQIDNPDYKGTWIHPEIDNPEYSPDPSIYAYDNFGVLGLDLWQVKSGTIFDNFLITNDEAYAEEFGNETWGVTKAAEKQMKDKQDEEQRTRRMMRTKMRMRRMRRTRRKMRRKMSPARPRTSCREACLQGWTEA


Tests used:
[1] = molecular target: T3, Recombinant MBP-mutCALR Type 1 fusion protein (human); test: SPR, IgG captured, 1:1 fit, Exp. 1
T3 construct: custom made at Cepter; also called recombinant mutCALR protein
Experimental: Experiment 1: Recombinant MBP-mutCALR Type 1 fusion protein was custom made at Cepter (cepterbiopartners.com). Data for the interaction of antibodies with recombinant MBP-mutCALR Type 1 fusion protein were collected at 25° C. on a Biacore 8K instrument (Cytiva, Marlborough, Mass.), and all reagents were obtained from Cytiva unless otherwise specified. The experiments were conducted using Tris-buffered saline (pH 7.2), 0.005% Surfactant P20, 1 mM CaCl₂) as running buffer. To prepare the capture surfaces, anti-human IgG (Fc) antibodies (Product #29234600) was amine-coupled onto a CM4 chip (Product #BR100534) under standard conditions using an Amine Coupling Kit (Product #BR100050). […] The kinetics parameters were obtained by applying 1:1 binding model to fit the data from multiple-cycle injection experiments using Biacore Insight Evaluation software.

[2] = molecular target: T3, Recombinant MBP-mutCALR Type 1 fusion …; test: SPR, IgG captured, 1:1 fit, Exp. 2
How it was run: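 Antibodies captured via amine-coupled anti-human IgG (Fc) on a CM4 chip; recombinant MBP-mutCALR Type 1 fusion protein as analyte. Run at 25 °C in Tris-buffered saline pH 7.2, 0.005% P20, 1 mM CaCl₂. Multiple-cycle kinetics fitted to a 1:1 binding model.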

[3] = molecular target: T1, human Type 1 mutCALR on Ba/F3 cells …; test: cell-based or functional assay
[4] = molecular target: T2, human mutCALR on BaF3 cells stably …; test: flow cytometry, BaF3 MPL-mutCALR cells
Experimental: On the day of the assay, cells were washed and resuspended in assay buffer. Approximately 200,000 cells/well were added to 96-well plates and stained with the indicated concentration of antibodies for 30 minutes on ice. Cells were then washed and stained with goat anti-human secondary conjugated to R-phycoerythrin (R-PE) (Jackson Immuno Research Laboratories) for 30 minutes on ice. The cells were then washed and analyzed by flow cytometry.

Row | Binder | Kd [1] [nM] | koff [1] [s⁻¹] | kon [1] [M⁻¹ s⁻¹] | Kd [2] [nM] | koff [2] [s⁻¹] | kon [2] [M⁻¹ s⁻¹] | IC50, inhibition of pSTAT5 [3] [µg/mL] | EC50 [4] [µg/mL] | MPL-mutCALR AUC [4]
1 | anti-mutCALR antibody clone 15 (antibody, human IgG1, lambda, human IgG1) heavy: not shown light: SYELTQPPSVSVAPGKTARITCGGDNIGSKSVHWYQQKPGQAPVLVVYDDSDRPSGIPERFSGSNSGNTATLTINRVEAGDEADYYCQVWDSSNDLLIFGGGTKLTVLGQPKAAPSVTLFPPSSEELQANKATLVCLISDFYPGAVTVAWKADSSPVKAGVETTTPSKQSNNKYAASSYLSLTPEQWKSHRSYSCQVTHEGSTVEKTVAPTECS | 6.03 | 0.215 | 3.57e+07 | 1.02 | 0.00249 | 2.44e+06 |  |  | 
2 | anti-mutCALR antibody clone 17 (antibody, human IgG1, lambda, human IgG1) heavy: not shown light: SYVLTQPPSVSVAPGQTARITCGGSDIGDEIVHWYQQKPGQAPVLVVYDDSDRPSGIPERFSGSNSGNTATLTISRAQAGDEADYYCQVWDSSSDHLIFGGGTKLTVLGQPKAAPSVTLFPPSSEELQANKATLVCLISDFYPGAVTVAWKADSSPVKAGVETTTPSKQSNNKYAASSYLSLTPEQWKSHRSYSCQVTHEGSTVEKTVAPTECS | 2.22 | 0.00347 | 1.56e+06 | 0.249 | 0.00127 | 5.12e+06 |  |  | 
3 | anti-mutCALR antibody clone 40 (antibody, human IgG1, lambda, V domains shown, human IgG1) VH: EVQLVQSGAEVKKPGASVKVSCKVSGYTLTESSMHWVRQAPGKGLEWMGLVDPEDGETIYAQKFQGRVTMTEDTSTDTAYMELSSLRSEDTAVYYCAREEWSGDGDDAFDIWGQGTMVTVSS VL: QSVLTQPPSVSAAPGQKVTISCSGSSSNIGSYSVSWYQQLPGTAPKLLIYDNNKRPSGIPDRFSGSNSGTSATLGITGLQTGDEADYYCGTWDSSLSAWVFGGGTKLTVLG | 1.04 | 0.00538 | 5.17e+06 | 0.352 | 0.00121 | 3.44e+06 |  |  | 
4 | anti-mutCALR antibody clone 53 (antibody, human IgG1, lambda, V domains shown, human IgG1) VH: QVQLVQSGAEVKKPGASVKVSCKVSGYTLTELSMHWVRQAPGKGLEWMGGFDPEDGETIYAQKFQGRVTMTEDTSTDTAYMELSSLRSEDTAVYYCATDIQGLAEFDYWGQGTLVTVSS VL: QSALTQPRSVSGSPGQSVTISCTGTNTDVGAYIDVSWYQQHPGKAPKLIIYDVSKWPSGVPDRFSGSKSGNTASLTISGLQAEDEADYYCCSYAGNHSFSFGGGTKVTVLG | 10.2 | 0.00235 | 229000 | 17 | 0.108 | 6.36e+06 |  |  | 
5 | anti-mutCALR antibody clone 32 (antibody, human IgG1, lambda, V domains shown, human IgG1) VH: QVQLVQSGAEVKKPGATVKISCKVSGYSFTDYFIHWVQQAPGKGLAWVGLVDPEDGETIYAEKFQGRVTITADTSTDTAYMELSSLRSEDTAVYYCATPGGILTDPDAFDIWGQGTMVTVSS VL: QSALTQPASVSGSPGQSITISCTGTSSDVGGYNYVSWYQQHPGKAPKLMIYEVSNRPSGVSNRFSGSKSGNTASLTISGLQAEDEADYYCSSYTSSSTPYVFGTGTKVTVLG | 5.63 | 0.00768 | 1.36e+06 | 1.71 | 0.00314 | 1.84e+06 |  |  | 
6 | anti-mutCALR antibody clone 36 (antibody, human IgG1, lambda, V domains shown, human IgG1) VH: QVQLVQSGAEVKKPGATVKISCKVSGYSFTDYFIHWVQQAPGKGLAWVGLVDPEDGETIYAEKFQGRVTITADTSTDTAYMELSSLRSEDTAVYYCATPGGILTDPDAFDIWGQGTMVTVSS VL: QSALTQPRSVSGSPGQSVTISCAGTGSDVGGYNYVSWYQHHPGKAPKLMIYDVNKRPSGVPDRFSGSKSGNTASLTISGLQAEDEADYYCSSYTSSSTFYVFGTGTKVTVLG | 2.95 | 0.00205 | 695000 | 1.22 | 0.00166 | 1.36e+06 |  |  | 
7 | anti-mutCALR antibody clone 1 (antibody, human IgG1, lambda, V domains shown, human IgG1) VH: EVQLVQSGAEVKKPGASVKVSCKVSGYTLTELSMQWVRQAPGKGLEWMGGFDPDDGETMYAEKFQGRLTVTEDTSTDTVYMELRSLTSEDTALYFCATSPGYDFFDYWGQGTLVTVSS VL: SYVLTQPPSVSVAPGKTARITCGGNYIGSKSVHWYQQKPGQAPVLVVYDDGDRPSGIPARFSGSNSGNTATLTISRVEAGDEADYYCQVWDSISDHVVFGGGTKLTVLG |  |  |  |  |  |  | 0.47 | 0.01 | 52800
8 | anti-mutCALR antibody clone 2 (antibody, human IgG1, lambda, V domains shown, human IgG1) VH: EVQLVQSGAEVKKPGASVKVSCKVSGYTLTELSMQWVRQAPGKGLEWMGGFDPDDGETMYAEKFQGRLTVTEDTSTDTVYMELRSLTSEDTALYFCATSPGYDFFDYWGQGTLVTVSS VL: SYELTQPPSVSVAPGKTARITCGGDNIGSKSVHWYQQKPGQAPVLVVYDDSDRPSGIPERFSGSNSGNTATLTISRVEAGDEADYYCQVWDSSIDHLIFGGGTKVTVLG |  |  |  |  |  |  | 0.12 | 0.01 | 60400
9 | anti-mutCALR antibody clone 44 (antibody, human IgG1, lambda, V domains shown) VH: EVQLVQSGAEVKKPGSSVKVSCKASGGTFSSYAISWVRQAPGQGLEWMGGIIPIFGTANYAQKFQGRVTITADESTSTAYMELSSLRSEDTAVYYCASSPLRGSGWYWHYYYGMDVWGQGTTVTVSS VL: SYVLTQPPSVSAAPGKTARISCGGNNIRSKSVHWYQQKAGQAPVLVIYQDSKRPSGIPERFSGSNSGNTATLTISGTQAMDEADYYCQAWDSNTVVFGGGTKLTVLG |  |  |  |  |  |  | 7 |  | 
10 | anti-mutCALR antibody clone 46 (antibody, human IgG1, lambda, V domains shown) VH: QVQLVQSGAEVKKPGSSVKVSCKASGGTFSSYAISWVRQAPGQGLEWMGGIIPIFGTANYAQKFQGRVTITADESTSTAYMELSSLRSEDTAVYYCASSPLRGSGWYWHYYYGMDVWGQGTTVTVSS VL: SYELTQPPSVSVAPGKTARITCGGNNIRSKSVHWYQQKPGQAPVLVVYQDSKRPSGIPERFSGSNSGNTATLTISGTQAMDEADYYCQVWDSSTAVFGGGTKLTVLG |  |  |  |  |  |  | 3.9 |  | 
11 | anti-mutCALR antibody clone 47 (antibody, human IgG1, lambda, V domains shown) VH: EVQLVQSGAEVKKPGSSVKVSCKASGGTFSSYAISWVRQAPGQGLEWMGGIIPIFGTANYAQKFQGRVTITADESTSTAYMELSSLRSEDTAVYYCASSPLRGSGWYWHYYYGMDVWGQGTTVTVSS VL: SYELTQPPSVSVAPGKTARITCGGNKIGTKSVHWYQQKPGQAPVLVIYRDSNRPSGIPERFSGSNSGNTATLTISRAQAGDEADYYCQVWDSSTVVFGGGTKLTVLG |  |  |  |  |  |  | 10 |  | 
12 | anti-mutCALR antibody clone 51 (antibody, human IgG1, lambda, V domains shown, human IgG1) VH: EVQLVQSGAEVKKPGSSVKVSCKASGGTFSSYAISWVRQAPGQGLEWMGGIIPIFGTANYAQKFQGRVTITADESTSTAYMELSSLRSEDTAVYYCASSPLRGSGWYWHYYYGMDVWGQGTTVTVSS VL: SYELTQPPSVSVAPGKTARITCGGNKIGTKSVHWYQQKPGQAPVLVIYQDSKRPSGIPERFSGSNSGNTATLTISGTQAMDEADYYCQAWGSSTVVFGGGTKLTVLG | 4.64 | 0.00109 | 235000 | 0.823 | 0.000524 | 636000 |  |  | 
13 | anti-mutCALR antibody clone 6 (antibody, human IgG1, lambda, human IgG1) heavy: not shown light: QSALTQPASVSGSPGQSITISCTGTSSDVGGYNYVSWYQQHPGKAPKLMIYEVSNRPSGVSNRFSGSNSGNTATLTINRVEAGDEADYYCQVWDSSNDLLIFGGGTKLTVLGQPKAAPSVTLFPPSSEELQANKATLVCLISDFYPGAVTVAWKADSSPVKAGVETTTPSKQSNNKYAASSYLSLTPEQWKSHRSYSCQVTHEGSTVEKTVAPTECS | 2.57 | 0.00153 | 597000 | 0.538 | 0.00123 | 2.29e+06 |  |  | 
